The target in experiment [1] is T1, Human B7-H4 on the cell surface (MX-1, HCC1569, CAMA-1 cells); HEK-293 cells stably transfected with human … (human, UniProt Q7Z7D3 25-282).
T1 construct: The cell line of each result is named under assay or readout; also called cell surface B7-H4
T1 sequence: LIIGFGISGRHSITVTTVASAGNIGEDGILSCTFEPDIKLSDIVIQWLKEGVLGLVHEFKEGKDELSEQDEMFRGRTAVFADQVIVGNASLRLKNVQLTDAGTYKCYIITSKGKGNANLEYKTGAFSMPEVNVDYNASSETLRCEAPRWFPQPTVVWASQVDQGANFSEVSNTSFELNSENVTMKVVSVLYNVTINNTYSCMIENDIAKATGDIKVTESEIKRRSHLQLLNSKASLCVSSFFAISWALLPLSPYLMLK
In words: flow cytometry, MX-1 cells. On the technique in general: Flow cytometry measures light scatter and fluorescence of single cells or particles in a stream.

Experiment [2] deals with T2, Recombinant human B7-H4 protein (R&D Systems #6576-B7-050) (human, UniProt Q7Z7D3 29-258).
T2 construct: Bought protein
T2 sequence: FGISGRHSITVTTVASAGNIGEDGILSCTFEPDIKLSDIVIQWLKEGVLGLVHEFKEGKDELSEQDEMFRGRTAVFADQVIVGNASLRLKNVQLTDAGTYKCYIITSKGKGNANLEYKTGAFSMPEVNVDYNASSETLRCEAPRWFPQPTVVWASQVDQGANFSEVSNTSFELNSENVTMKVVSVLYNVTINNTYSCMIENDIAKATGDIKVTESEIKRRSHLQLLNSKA
In words: ELISA, coated recombinant human B7-H4. Background: In an ELISA, binding on a coated surface is turned into a signal by an enzyme label.

Experiment [3] has as its target T2, Recombinant human B7-H4 protein (R&D …). In words: ELISA, coated recombinant human B7-H4. This is another data set of the same source.
For experiment [4] the target is unchanged. In words: ELISA, coated recombinant human B7-H4. The source holds these as a separate data set.
Experiment [5] concerns the target T3, Rat B7-H4 protein (R&D Systems 10085-B7) (rat, UniProt Q501W4 29-257, limits assumed).
T3 construct: Bought protein
T3 sequence (looked up): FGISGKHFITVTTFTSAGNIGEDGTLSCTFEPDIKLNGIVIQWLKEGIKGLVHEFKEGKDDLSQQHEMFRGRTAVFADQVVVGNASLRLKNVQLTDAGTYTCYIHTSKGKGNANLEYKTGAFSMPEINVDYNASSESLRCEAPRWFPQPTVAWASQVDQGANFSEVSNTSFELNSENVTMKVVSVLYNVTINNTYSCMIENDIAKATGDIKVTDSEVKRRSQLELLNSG
In words: ELISA, coated rat B7-H4, mean of two studies.

The target in experiment [6] is T2, Recombinant human B7-H4 protein (R&D …). The experiment in a line: ELISA, coated human B7-H4, mean of two studies.
Experiment [7] addresses T4, Mouse B7-H4 protein (Creative Biomart; VTCN1-1519R) (mouse, UniProt Q7TSP5 25-257).
T4 construct: Bought protein
T4 sequence (looked up): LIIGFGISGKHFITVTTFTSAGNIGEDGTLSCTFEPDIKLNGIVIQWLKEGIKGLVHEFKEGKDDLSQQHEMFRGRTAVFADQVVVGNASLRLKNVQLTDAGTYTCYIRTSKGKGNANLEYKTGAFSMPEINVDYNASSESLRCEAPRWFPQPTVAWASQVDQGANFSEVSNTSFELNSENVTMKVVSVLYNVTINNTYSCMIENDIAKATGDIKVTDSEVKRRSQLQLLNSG
In words: ELISA, coated mouse B7-H4, mean of two studies.

Experiment [8] has as its target T5, Monkey B7-H4 protein (Creative Biomart; VTCN1-1519R) (monkey).
T5 construct: Bought protein
In words: ELISA, coated monkey B7-H4, mean of two studies.

The target of experiment [9] is T1, Human B7-H4 on the cell surface (MX-1, …). In words: flow cytometry, MX-1 cells, mean of two experiments.
Experiment [10] has the same target. In words: flow cytometry, HEK-293 cells stably transfected with human B7-H4, mean of two experiments.

Bounds are passed on as bounds.

Consider one molecule from US20240269306A1 (MERSANA THERAPEUTICS, published 2024).

B1: Palivizumab (antibody, V domains shown)
VH: QVTLRESGPALVKPTQTLTLTCTFSGFSLSTSGMSVGWIRQPPGKALEWLADIWWDDKKDYNPSLKSRLTISKDTSKNQVVLKVTNMDPADTATYYCARSMITNWYFDVWGAGTTVTVSS
VL: DIQMTQSPSTLSASVGDRVTITCKCQLSVGYMHWYQQKPGKAPKLLIYDTSKLASGVPSRFSGSGSGTEFTLTISSLQPDDFATYYCFQGSGYPFTFGGGTKLEIK
With B1, the EC50 – broadly, the midpoint of the concentration-response curve – in experiment [1] was above 200 nM; in experiment [2] it was above 100 nM; in experiment [3] it was above 100 nM; in [4], above 100 nM; in [5], above 100 nM; in experiment [6], above 100 nM. Besides, the EC50 in experiment [7], in [8], in experiment [9] and in experiment [10] was above 100 nM each time.
